The source of these data is a protein production outcome set (Wang et al. 2014).
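Further: failed if final PepcDB status was selected cloned or expressed and not failed if soluble or beyond.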

This series can be described thus: label from the status in PepcDB records.
Turning to “MQVTLIQGLLIGLFALIAGIDFWLEGLYIFRPMIVCTVTGAILGNLTLGIIAGGLTELAFAGLTPVGGTQPPNPIMAGIMTVVLAYTTGKTPSTAIGLALPFSILMQYIILFYYSAFSVLTKKLDAYAANVETKKFTRLALLPTVLVALTYGVIAFLCVYGAQEPMKALVNSMPVWLSHGFEIAGNILPAVGFGLLLKSMLKAEYVPYLLLGFTAACFIKFGNLMPVAVIGISLAFIEFYHNKKQTDNEKKLKSMIESASGNGDDGDGI”, the protein production result was “failed”.
For “MDMLKKRKLDENGIAMLHDGVSGSVSFRLVPQDARKITELFFADQLLDILQEAIVRHPDVLFFFF” the value was “failed”.
Take “MTLRTRITLLTAGLLLVAFLVLGFALEGLLRNFLYGSLRTDLKEAANQVVRLLNLGGQALLEAGLPPSLYAEVQLLPEEDPALLAREGGISLQKSPALGSQRLLLQEEAYRELLKRGEVWAYAELPREGHPLRLLVYARKVEVNLSGSVWKGALLVGRPTEDLEATLSQFARIYAGTALFVLLLSLFLARGLVARALEPLEWAARKAEAMSARPEPLPEPETRDEVAALVKALNGMLTRLQEAFEAQTRFLQDASHELRTPITAILGHVGYLLRRTPLTEAQRESLEVVKREAERMGKLVSDLLDLSQSGTWRIRPVPVRVLDLLEEVREEFAKSFDGAILVEAPEDLYVLGDPDRLHQVMANLVSNALKAGARHVWLRAFDLGDKAVVRVEDDGEGIPEEHLPHLFERFYRVDKARDRERGGSGLGLAIVKAILEAHGGEVWVESQVGKGTAFSFSLPASGPPPPPR”: the protein production entry is recorded as “failed”.
For “MLVTKLAPDFKAPAVLGNNEVDEHFELSKNLGKNGAILFFWPKDFTFVCPTEIIAFDKRVKDFQEKGFNVIGVSIDSEQVHFAWKNTPVEKGGIGQVTFPMVADITKSISRDYDVLFEEAIALRGAFLIDKNMKVRHAVINDLPLGRNADEMLRMVDALLHFEEHGEVCPAGWRKGDKGMKATHQGVAEYLKENSIKL”, the protein production entry is recorded as “failed”.
For “MTLDNRAFLKQSSKKLLFRFAVPAIFSLLVNELYNMVDTVFAGRYIGENAIGAMTIAFPIQKILIAMGLLIATGASTYAARVIGEKNYKELKKIVINSCALTIVSIISISFIIFQFKSSILYSLGASDNTYPMAVQYISIILFGSIFMCLASVMSYIMVSLGKTKTLLYTNIVGVLLNIILNYVLVIQLHMGIRGSGIATVLSQLAAFVVALVQFAYMNKKQNFKFFENISTNIISGDIIREIVLVGFSTFIIEIADAVVSAVLNNVLYAGGGDSAIIMLGVITKVYMFMFITVIGISSGMQPIVGYNFGAGNYKKAKDILKFSLKTVIIISAFVWVGFIIWAQPLIGFFLKDAQLVSKTVSAFRIVISMLPLLGIYYVAIYYYQAIGEARISFILSIYRELIMFIPMAVILFKIVGINGVFIAYPLTDIIVILTSVYFIRRAFKEQFAEESIPKRVGARA” the value was “failed”; for “MSGIIATYLIHDDSHNLEKKAEQIALGLTIGSWTHLPHLLQEQLKQHKGNVIHVEELAEHEHTNSYLRKKVKRGIIKIEYPLLNFSPDLPAILTTTFGKLSLDGEVKLIDLTFSDELKKHFPGPKFGIDGIRNLLQVHDRPLLMSIFKGMIGRNIGYLKTQLRDQAIGGVDIVKDDEILFENALTPLTKRIVSGKEVLQSVYETYGHKTLYAVNLTGRTFDLKENAKRAVQAGADILLFNVFAYGLDVLQSLAEDDEIPVPIMAHPAVSGAYSASKLYGVSSPLLLGKLLRYAGADFSLFPSPYGSVALEKEEALAISKYLTEDDASFKKSFSVPSAGIHPGFVPFIVRDFGKDVVINAGGGIHGHPNGAQGGGKAFRTAIDATLQNKPLHEVDDINLHSALQIWGNPSYEVKL”, “not failed”; for “MNLETKPIAETPNFIVLDQYEKIEQSGSYQSENRLEAELIADLQNQGYEYRKDLNSQSRLLENLRAQLQRLNDVAFSDGEWARFLTEYLDRPAENITDKTRKIHDDHIYDFAFDDGRLKNIYLLDKKNLARNHVQLINQFEQTGTHANRYDVTVLVNGLPLVQIELKKRGVAVREAFNQVHRYSKESFNSGNSLFKFLQIFVISNGTDTRYFANTTKRDKNSFDFTMNWARSDNHPIKDLKDFTATFLQKSVLLSVLLHYSVFDANDTLLIMRPYQIAAAERILWKINSSAQAKNWSGPESGGYVWHTTGSGKTLTGFKAARLATESAFIDKVFFVVDRKDLDYQTMKEYQRFSPDSVNGSESTAGLKRNLEKDGNKIIVTTIQKLNNLMKSEDNLPVYHRQVVFIFDECHRSQFGEAQKNLKKKFKKFCQFGFTGTPIFPENALGAETTAGVFGRELHSYVITDAIRDEKVLKFKVDYNDVRPQFKAVEAEQDEKELSAAENRQALLHPERIREITQYILSRFRQKTHRLNAGGKGFNAMFAVSSVDAAKCYYEAFKTQQAGSLHPLKTATIFSFAANEEQNAVGEIVDETFEPEAMDSSAKEFLQAAINDYNACFKTNFGTDSKAFQNYYRDLAKRVKNREVDLLIVVGMFLTGFDAPTLNTLFVDKNLRYHGLMQAFSRTNRIYDATKTFGNIVCFRDLEQATIDAITLFGDKNTKNVVLEKSYEEYMNGYTDSQTGEARRGYLDVAKELHERFPDPDKIETEKDKKDFAKLFGEYLRAENVLQNYDEFAALRELQNVDAADEDAMKAFQEKYYLSDEDVQEMRKVPMPSERAVQDYRSAYNDIRDWLRRQKAGEQKEQSKIDWDDVVFEVDLLKSQEINLDYILQLVFEHHKKIKGKAELVEEIRRIIRASIGHRAKEGLIVDFINDTDLDKVPDVPAILETFYTYAQEVMRHEAAGLIAAEGLNETAAKRYLTGSLKRGYASENGTELTETLPKMSPLNPQYLTKKQSVFQKIAAFVEKFAGIGADI”, “failed”.
For “SNQDITQPTAIIAVVGVGAEQGIGAAVCRRFAQEKFKVYVAGRTLNKVEKVAAAIHRQGGQAVAYVLDAENEQQLQTLFDHLNDQPEALAAVIHNVGGNIPSIFLQSSLKFFSQMWRSTFLSSVLVAQRSLSIFQKQQQGTLIFTGASASLRGKPFFAAFSMGKSALRSYALNLAELYRSQNIHVAHVMVDGMVDGDRVNKALWGLGRLARLTRGTGGLNIDAIAENYWMLYQQNVDLWT” the value was “failed”; for “MEVFLKEFLLNKFFIDFFYKNQNNITIKTILVTFKVIFSICFNSSNFGLRYSKKKTLNLSELMHLVTFMLAYFLIQV”, “failed”.
For “MNKNILFLSLMALPVFAFAENNLVLPTITVSAEQQVQSYAADRLNKQAALGSLGEKSVLDTPFSLVSYSDVMIRDQQASTVSEVLRADPSIRETTNAGHLNENLQIRGFTVGFEDYNINGLYGMSPSGRIPTDILDHVTLLEGPNALVAGMAPAGSVGGVVMAQTKRATKDL” the value was “failed”.
Consider “MIEGIIEEIRTNGSFLITTHENPDGDAVGSSLALAGYLRRLGKDVTIHFCDPVPDLYAFLPLAEEVTRTVPDRDYDICFVLDVGEFRRAGKQIAECKRIKKFINIDHHLTSDNFGFINYIDPKAAATGILVHRIITGAGDVVGYETALCLYTAIITDTGSFRYSNANPEAFAIAGELVSTGINTWSIAEKLYESQPRERLELLALALSTLTISPRGEYASITVTLDMYNKTGASAELTDGFVNYPRSIRGVEVSVFFREINPGLFKVGFRSKGKIDVSRIAAAFGGGGHHNAAGATMNGSLEGIKATLFSHLESTLLEHHHHHH”, for which the protein production result is reported as “not failed”.
For “MQTINATEIRNNFSYYIDTVVRDKPIAVKRNRDVLLFFSEQIIKDLLQDLKIHAELSKEDGIIIGTIDGFDLVVSGESEQEVIQKLAEDLLEYAQDYMNDFKLFYNAPNRKTHYPYILKVLLSSNIDEVKGYIYAEMV” the value was “not failed”.
For “MQITIKVLKGKDCTIEVAPTSTILEVKHQIEAELQISATNQKLLLLGRPLNNEQTIASYPNIKEGTKLNLVVIKPCLRDSILRGFRKHYSEPLAERMTNEFMADFERKINEQSLDDLERLADSIVNRAAT” the value was “failed”; for “MHEWGLSEELKIQTKQMIEIAEKELSIMRNAIDKEDECILCKMEDIHHMLANVQTLAATYYIQAYLSPYTESSSFITTAIQHLSARKHGALIVVERNETLEALIQTGTTLNAHLTAPLLESIFYPGNPLHDGAVLVKNNHIVSAANILPLTKSTEVDPELGTRHRAAIGLSEKSDALILVVSEETGRTSFALNGILYTISL”, “not failed”; for “SLKLAKNVEIEIRTKIHPTESEDKVLKAIRNIFPDAEIEISEEGEVYGRAYSLDRFRELLRKQRILDTARSEILKGRNGKEVTIYLNKQTATVSRINFCDENAVLSPIKVTFRLNNIPFSRFLDYIAPETKDGRPVKEIDKL”, “not failed”.
For “MPERINKMKIIAFYLPQFHNIPENDEWWGDGFTEWVNVKKAKPIFDGHNQPRVPLNHNYYNLLDDDVKIWQADLAKKYGVYGFCYYHYWFDGKLLLEKPMEQMLENKKVDIPFCICWANEPWTRAWVGETKTLIPQKYGSKKEWKEHFDYLLPFFKDPRYILDEGKPLVVIYRPEIIDVLNDMLDYWNELAKNAGFEGLKFAYQSAGMDELPKNKRNDSRFDYDIEFQPAYAFTKLNKNTLPVLRKIKKVVSDFVEKRTGLTLRFIGSGKVAALNRVDYDKAWETILNTTPESIINVPGAFVDWDNTPRHGERGRVYIGKTPEKFEKYLSEQIRRAKNVYHKDMIFMYAWNEWAEGGYLEPDQTSGYAYLEAIKKALDENGENPWQH” the value was “failed”; for “MQRFLSIALALCVGLTLSLDASAKRFGGGKSSGSAPIHQTRQATPTTPAAAPTVPGRAPAAASGASRWLGPLAGLAAGGLLASMFMGDGFEGFQIMDFLIVALIAFLVFRFIAARRRQQQPQMAMPGHAPMQREAHAQPAQPSIFGGSAAPAATAAPVINAPAWFNEQSFLAAARNHFQSLQQHWDANEMDKISEFVTPQMLEFLKRERAELGDGFQSTYIDNLEVQLDGVDDRADRTDATLTFRGVSKNSRFDQGEVFSESWHMVRAQGENQPWLVAGIRQNS”, “failed”; for “MDSMDHRIERLEYYIQLLVKTVDMDRYPFYALLIDKGLSKEEGEAVMRICDELSEELATQKAQGFVTFDKLLALFAGQLNEKLDVHETIFALYEQGLYQELMEVFIDIMKHFD”, “not failed”.
For the sequence “MIKLQLKLQGSVSVQVNAGPLAYARAFLDDTNTKRYPDNKVKLLKEVFRQFVEACGQALAVNERLIKEDQLEY”, the protein production entry is “failed”.
“MYSGFTREKSDLRTEDVEITKEPFTLLIMGIEDYATDGQNGRTDSLMFATVNPKTQKISLMSIPRDSRVPIVGKNKEDKINAAHAYGGEEMAIKTVEGFLKVPVDHYVKIDFQGFKGIVDAVGGVTVDVPFDFWERSDVDYYKKIQFKQGQQELNGEEALAYVRMRKQDPNGDYGRAARQRQLLAAVAQKLNSTSTVFKIKDLTSVVGKYIKTDIPISDGLALYKKLSGFDPSTIQTLKLEGEDKKIGGIYYFLPDPNGVEAVRNEIKKELGLEHHHHHH”: the protein production entry is “not failed”.
For “MNRILQQVANQYWFRVSLTVICCLATICLGVHQSYVWFSVSACLLILSIIWQVRLYRLHIKQVLFMIDALENNDSAFRFPEESGTPESKQINRALNRVGHILYNVKAETAQQEKYYKLILDFVSTGLLVLNDNGAVYQKNKEALRLLGLNVFTHVRQLSKVDATLMEKIESCCSGDKLQVVFHNERGTVNLSIRVSEINVHKEHLRILALNDINIELDEKEIDSWIRLTRVLTHEIMNSVTPITSLSDTLLSMVEDKDEEISHGLQTISATGKGLLAFVESYRKFTRIPTPEPSLFYLKAFIERMVELARHQNPCDHITFHTKIDPADLILHADENLISQVVINLLKNAIQAIGDQPDGQIDIQVYCNETEEVLIEIKNNGPVIPPEIVEHIFIPFFTTKEGGSGIGLSISRQIMRLSGGSLTLLPDNKETKFILKFK”, the protein production result is recorded as “failed”.
For “MEFDKGQTLGNFIDRIRLNGYNTECVFNQSICQDIKNHYKQQCCAMCGVRGNSENTQIEVDHKDGRKDDSRVSDLSTQAFDDFQALCKACNDKKRQICKKCKETGYRFDARKIPGNHYSFYEGEAEYDGCVGCYQYDPIQYRKTCNDRIYNEGYQKGYSDGYQIGYHQKTT” the value was “failed”.
